Test results as given in paper PMC8301994, “Kinetic Constraints in the Specific Interaction between Phosphorylated Ubiquitin and Proteasomal Shuttle Factors” (Biomolecules, 2021).

B1: Human Ubqln2-UBA (residues 578 to 621) (domain or fragment, UniProt Q9UHD9 578-621, looked up)
chain: PEVRFQQQLEQLNAMGFLNREANLQALIATGGDINAAIERLLGS
notes: Ubiquilin-2 (Ubqln2), human, UBA domain, residues 578 to 621; synthetic gene with optimized codons in pET11a; 15N- or 15N/13C-labelled in some experiments; also called UBA domain from Ubqln2; Ubiqulin-2 UBA; source: E. coli BL21 (DE3), purified (Ni-NTA, Sephacryl S100; TEV cleavage, second Ni-NTA, Sephacryl S100); not shown: thioredoxin, N-terminal, cleaved; His6, N-terminal, cleaved
B2: Human Rad23A-UBA2 (residues 315 to 363) (domain or fragment)
chain: not shown
notes: UV excision repair protein Rad23A, human, second UBA domain (UBA2), residues 315 to 363; synthetic gene with optimized codons in pET11a; 15N-labelled in the CPMG experiment; also called Rad23-UBA2; second UBA domain (UBA2) from Rad23A; source: E. coli BL21 (DE3), purified (Ni-NTA, Sephacryl S100; TEV cleavage, second Ni-NTA, Sephacryl S100); not shown: thioredoxin, N-terminal, cleaved; His6, …

Columns and labels:
Settings in all cases: both partners purified
[1] = target: T1, S65-phosphorylated ubiquitin (human, UniProt P0CG48 1-76, phosphoserine at 65); test: NMR titration; 1H-15N HSQC; 100 uM 15N-labeled Ub or pUb titrated with unlabeled UBA (22.7 to 340.4 uM); 20 mM HEPES, 150 mM NaCl, pH 7.4, 25 C; CSPs of pUb fitted with the revised model of coupled pUbRL/pUbRT equilibria (KD is for pUbRL), CSPs of Ub with a simple one-site model
T1 construct: ubiquitin, human; the cut product of the ubiquitin precursor; phosphorylated at S65 by PINK1; One chemical species that exchanges slowly between two conformations, pUbRL and pUbRT; The printed KD, kon and koff are defined for the pUbRL state; 15N-labelled or unlabelled, depending on the experiment; also called pUb; pUbRL (C-terminally relaxed conformation); source: E. coli BL21 star, purified; …

[2] = target: T2, Human ubiquitin (unmodified) (human, UniProt P0CG48 1-76); test: as above
T2 construct: ubiquitin, human; the cut product of the ubiquitin precursor; cloned into pET11a; 15N-labelled in the NMR titrations; also called unmodified Ub; source: E. coli BL21 star, purified (Sepharose SP, Sephacryl S100)

[3] = target: T1, S65-phosphorylated ubiquitin; test: NMR CPMG relaxation dispersion; 15N-labeled Ubqln2-UBA 300 uM with 32 uM unlabeled pUb (~10% saturation); 20 mM HEPES, 150 mM NaCl, pH 7.4; two magnetic fields, global fit; kon and koff calculated from kex and the KD
[4] = target: T1, S65-phosphorylated ubiquitin; test: NMR CPMG relaxation dispersion; 15N-labeled Ubqln2-UBA 300 uM with 228 uM unlabeled pUb (~50% saturation); 20 mM HEPES, 150 mM NaCl, pH 7.4; two magnetic fields, global fit; kon and koff calculated from kex and the KD

Row | Binder | Kd [1] | Kd [2] | koff [3] | kon [3] | koff [4] | kon [4]
1 | B1 | 43.3 ± 3.6 µM | 33 ± 3.7 µM | 293 ± 27.5 s⁻¹ | 6.8e+06 ± 600000 M⁻¹ s⁻¹ | 678 ± 61 s⁻¹ | 1.56e+07 ± 1.4e+06 M⁻¹ s⁻¹
2 | B2 | 404 ± 38.8 µM | 356 ± 56 µM | – | – | – | –
